From paper PMC8136776

Tests used:
mPOLγA A449T = biological target: T1, mPOLγA A449T (Mus musculus, UniProt P54099 26-1218, A450T); test: EMSA
T1 sequence: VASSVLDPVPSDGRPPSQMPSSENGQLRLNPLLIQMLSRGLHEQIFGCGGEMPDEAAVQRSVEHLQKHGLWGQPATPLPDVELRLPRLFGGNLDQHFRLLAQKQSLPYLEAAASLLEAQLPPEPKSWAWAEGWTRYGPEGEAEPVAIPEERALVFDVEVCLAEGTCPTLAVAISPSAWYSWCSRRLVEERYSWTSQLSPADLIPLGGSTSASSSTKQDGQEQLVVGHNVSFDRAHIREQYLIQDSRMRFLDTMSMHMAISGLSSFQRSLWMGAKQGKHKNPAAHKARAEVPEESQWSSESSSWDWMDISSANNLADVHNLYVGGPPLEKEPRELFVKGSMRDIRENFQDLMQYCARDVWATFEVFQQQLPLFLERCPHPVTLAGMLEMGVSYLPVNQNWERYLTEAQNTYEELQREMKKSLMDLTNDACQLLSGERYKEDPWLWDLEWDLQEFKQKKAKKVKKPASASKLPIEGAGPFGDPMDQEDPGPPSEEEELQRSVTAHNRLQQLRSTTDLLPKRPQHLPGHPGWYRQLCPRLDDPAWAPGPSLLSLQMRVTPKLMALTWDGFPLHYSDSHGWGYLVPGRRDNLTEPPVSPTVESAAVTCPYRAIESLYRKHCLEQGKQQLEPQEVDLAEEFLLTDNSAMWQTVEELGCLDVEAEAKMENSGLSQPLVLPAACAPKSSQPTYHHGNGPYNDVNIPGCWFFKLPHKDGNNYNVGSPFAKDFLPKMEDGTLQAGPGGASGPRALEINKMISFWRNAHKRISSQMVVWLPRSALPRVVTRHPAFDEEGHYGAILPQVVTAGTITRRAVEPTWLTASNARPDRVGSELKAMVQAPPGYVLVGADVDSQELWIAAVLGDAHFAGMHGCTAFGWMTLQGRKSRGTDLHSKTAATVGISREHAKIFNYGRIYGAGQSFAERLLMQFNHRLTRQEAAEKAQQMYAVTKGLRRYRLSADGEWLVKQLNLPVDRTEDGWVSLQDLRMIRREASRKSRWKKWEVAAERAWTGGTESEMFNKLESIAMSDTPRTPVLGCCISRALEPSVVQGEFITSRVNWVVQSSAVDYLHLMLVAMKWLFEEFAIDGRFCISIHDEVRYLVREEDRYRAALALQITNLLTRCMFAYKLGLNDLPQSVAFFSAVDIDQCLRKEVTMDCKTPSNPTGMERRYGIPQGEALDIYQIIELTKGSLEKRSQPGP

mPOLγA A449T;mPOLγB = mPOLγA A449T;mPOLγB (Mus musculus;Mus musculus, UniProt P54099;Q9QZM2 26-1218;17-459, A450T|); test: EMSA
Sequence of mPOLγA A449T;mPOLγB (Q9QZM2 17-459, stated change not applied, one chain of several): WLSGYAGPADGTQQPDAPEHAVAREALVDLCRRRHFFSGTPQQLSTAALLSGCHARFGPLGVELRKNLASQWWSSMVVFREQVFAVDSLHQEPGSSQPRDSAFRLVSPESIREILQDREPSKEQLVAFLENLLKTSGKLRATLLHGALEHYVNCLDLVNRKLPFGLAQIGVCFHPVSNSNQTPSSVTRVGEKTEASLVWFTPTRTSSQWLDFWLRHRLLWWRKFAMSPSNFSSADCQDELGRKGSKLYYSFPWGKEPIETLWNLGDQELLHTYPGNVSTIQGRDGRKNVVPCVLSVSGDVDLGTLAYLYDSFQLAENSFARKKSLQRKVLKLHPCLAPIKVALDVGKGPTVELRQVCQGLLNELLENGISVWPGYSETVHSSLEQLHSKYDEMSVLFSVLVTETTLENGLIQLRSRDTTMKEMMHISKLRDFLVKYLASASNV

B1: 36/21-nt primer-template (mixed)
DNA 1: TTTTTTTTTTATCCGGGCTCCTCTAGACTCGACCGC
DNA 2: GCGGTCGAGTCTAGAGGAGCC
B1 was tested, and the binding signal (mPOLγA A449T) was ~3.4 fold lower binding than WT and the binding signal (mPOLγA A449T;mPOLγB) was 1.75 fold lower binding than WT holoenzyme.
